# Reference: US20210388084A1 (JJP BIOLOGICS SP Z O O, published 2021)
# T1: chimeric bovine EC1-Fcγ2R/human EC2-CD89 (bovine/human chimera)
# T1 chain: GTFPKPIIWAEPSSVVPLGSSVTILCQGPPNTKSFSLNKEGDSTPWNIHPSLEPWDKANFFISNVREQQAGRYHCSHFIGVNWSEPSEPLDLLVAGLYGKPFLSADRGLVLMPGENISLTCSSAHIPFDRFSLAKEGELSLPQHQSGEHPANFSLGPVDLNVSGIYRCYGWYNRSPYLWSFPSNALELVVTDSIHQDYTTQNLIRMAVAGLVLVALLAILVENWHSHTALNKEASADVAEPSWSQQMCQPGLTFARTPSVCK
# T2: chimeric human/cynomolgus monkey CD89-I (human/cynomolgus monkey chimera, UniProt P24071 22-287)
# T2 construct: also called ΔGln22-Lys46 human EC1-CD89; I (22-46)
# T2 chain: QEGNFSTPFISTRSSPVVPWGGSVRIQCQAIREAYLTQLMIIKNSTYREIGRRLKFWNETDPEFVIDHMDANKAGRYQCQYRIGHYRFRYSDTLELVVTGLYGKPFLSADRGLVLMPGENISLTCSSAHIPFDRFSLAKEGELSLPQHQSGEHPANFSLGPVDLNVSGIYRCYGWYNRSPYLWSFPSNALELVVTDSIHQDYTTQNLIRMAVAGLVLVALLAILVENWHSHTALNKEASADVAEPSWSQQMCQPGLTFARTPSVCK
# T3: chimeric human/cynomolgus monkey CD89-III (human/cynomolgus monkey chimera, UniProt P24071 22-287)
# T3 construct: also called ΔGly72-Gly96 human EC1-CD89; III (72-96)
# T3 chain: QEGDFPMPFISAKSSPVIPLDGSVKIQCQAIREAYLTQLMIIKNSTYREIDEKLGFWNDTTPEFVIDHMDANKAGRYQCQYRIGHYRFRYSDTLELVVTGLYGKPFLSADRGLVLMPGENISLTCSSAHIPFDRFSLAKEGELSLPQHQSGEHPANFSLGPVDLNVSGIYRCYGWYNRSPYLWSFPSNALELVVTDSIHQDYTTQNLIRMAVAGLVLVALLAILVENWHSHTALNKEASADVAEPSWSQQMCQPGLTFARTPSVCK
# T4: chimeric human/cynomolgus monkey CD89-hotspots (human/cynomolgus monkey chimera, UniProt P24071 22-287)
# T4 construct: also called ΔThr58, Gln59; ΔArg73, Arg74, Lys76
# T4 chain: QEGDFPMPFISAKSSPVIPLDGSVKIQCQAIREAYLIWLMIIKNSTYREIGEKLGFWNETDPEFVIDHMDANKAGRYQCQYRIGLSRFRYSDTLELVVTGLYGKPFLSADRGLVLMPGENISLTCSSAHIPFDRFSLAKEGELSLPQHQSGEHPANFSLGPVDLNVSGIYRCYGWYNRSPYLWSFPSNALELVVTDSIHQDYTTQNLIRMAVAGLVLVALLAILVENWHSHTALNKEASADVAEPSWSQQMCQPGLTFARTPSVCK
# T5: chimeric human/cynomolgus monkey CD89-IV (human/cynomolgus monkey chimera, UniProt P24071 22-287)
# T5 construct: also called ΔArg97-Gly121 human EC1-CD89
# T5 chain: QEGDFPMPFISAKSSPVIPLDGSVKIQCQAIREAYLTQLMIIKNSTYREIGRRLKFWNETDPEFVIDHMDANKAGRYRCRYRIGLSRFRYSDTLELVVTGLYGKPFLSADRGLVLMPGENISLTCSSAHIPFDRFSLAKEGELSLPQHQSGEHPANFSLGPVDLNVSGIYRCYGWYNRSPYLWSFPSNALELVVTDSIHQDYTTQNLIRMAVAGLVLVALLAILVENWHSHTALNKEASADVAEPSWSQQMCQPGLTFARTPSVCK
# T6: chimeric human/cynomolgus monkey CD89-II (human/cynomolgus monkey chimera, UniProt P24071 22-287)
# T6 construct: also called ΔIle47-Ile71 human EC1-CD89; II (47-71)
# T6 chain: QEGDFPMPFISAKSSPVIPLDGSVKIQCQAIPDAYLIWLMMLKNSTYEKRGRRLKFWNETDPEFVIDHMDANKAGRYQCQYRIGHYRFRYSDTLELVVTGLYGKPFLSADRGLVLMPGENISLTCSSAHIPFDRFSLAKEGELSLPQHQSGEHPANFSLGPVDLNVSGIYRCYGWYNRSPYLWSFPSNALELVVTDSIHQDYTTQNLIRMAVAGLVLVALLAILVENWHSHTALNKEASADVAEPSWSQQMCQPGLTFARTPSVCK
# Key:
# [1] = molecular target: T7, recombinant C-terminal polyhistidine-tagged human (extracellular) CD89 (human, UniProt P24071 22-227); assay: ELISA, coated rhuCD89, half-maximum binding
# T7 construct: extracellular domain; bought (Sino Biological); also called rhuCD89
# Experimental: After extensive washing with PBS/0.05% Tween 20, plates were blocked with PBS/0.05% Tween 20/1% BSA (Roche) for 1 hour at RT. Subsequently, plates were incubated with 50 μL titrated (in block buffer) purified mouse anti-human CD89 antibody/well for 1 hour at RT. […] After extensive washing in PBS/0.05% Tween 20, binding of antibodies on rhuCD89 was determined with 1:5,000 diluted horseradish peroxidase (HRP)-conjugated goat anti-mouse IgG Fey-specific antibodies (Jackson ImmunoResearch) for 1 hour at RT, followed by a ready-to-use solution of TMB substrate (Invitrogen) for colorimetric detection.
# After extensive washing with PBS/0.05% Tween 20, plates were blocked with PBS/0.05% Tween 20/1% BSA (Roche) for 1 hour at RT. Subsequently, plates were incubated with and without 50 μL titrated (in block buffer) purified chimeric mouse/human anti-human CD89 antibody/well for 1 hour at RT. After extensive washing in PBS/0.05% Tween 20, binding of antibodies on rhuCD89 was determined with 1:5,000 diluted horseradish peroxidase (HRP)-conjugated goat anti-human IgG Fey-specific antibodies (Jackson ImmunoResearch) for 1 hour at RT, followed by a ready-to-use solution of TMB substrate (Invitrogen) for colorimetric detection.
# [2] = molecular target: T8, membrane-bound full-length human CD89 (human, UniProt P24071 22-287); assay: FACS, HEK293F-huCD89, 24 h 37C no NaN3, Ab 10 ug/mL then IgA; competitor heat-aggr serum IgA
# T8 construct: on stably or transiently transfected HEK293F cells; also called FcalphaRI; huCD89
# Experimental: (§1) After extensive washing in PBS/BSA/NaN₃, 1:200 diluted PE-conjugated streptavidin (Jackson ImmunoResearch) was added, and incubated for 30 minutes at 4° C. After extensive washing in PBS/BSA/NaN₃, cells were fixed in 2% formaldehyde in PBS/BSA/NaN₃ for 30 minutes at 4° C.
# [3] = molecular target: T8, membrane-bound full-length human CD89; assay: FACS, HEK293F-huCD89, unlabeled Ab 10 ug/mL first; competitor A59-PE
# Experimental: (§2) Then, 10 μL/tube (ie, 0.1×10⁶ cells) of these cells were incubated with or without 100 μL purified mouse anti-human CD89 antibody at 10 μg/mL (in PBS/BSA/NaN₃) for 30 minutes at 4° C. […] After extensive washing in PBS/BSA/NaN₃, cells were fixed in 2% formaldehyde in PBS/BSA/NaN₃ for 30 minutes at 4° C.
# [4] = molecular target: T8, membrane-bound full-length human CD89; assay: FACS, HEK293F-huCD89, 4C +NaN3, Ab 10 ug/mL then IgA; competitor heat-aggr serum IgA
# Experimental: To mimic human IgA immune complexes, human (serum-derived) IgA (Bethyl Laboratories) was heated at 63° C. for 30 minutes, and cooled down to RT followed by centrifugation at 4° C. 12000×g for 2 minutes to remove any insoluble protein precipitation.
# Then, 10 μL/tube (ie, 0.1×10⁶ cells) of these cells were incubated with or without 50 μL purified mouse anti-human CD89 antibody at 20 μg/mL (in PBS/BSA/NaN₃) for 30 minutes at 4° C.
# [5] = molecular target: T1, chimeric bovine EC1-Fcγ2R/human EC2-CD89; assay: FACS, transiently transfected HEK293F
# Experimental: After 48 hours and/or 72 hours, the binding of CD89/IgA blocking mouse anti-human CD89 antibodies to aforementioned chimeric human/bovine receptors on transfected cells was analyzed by FACS analysis. To this end, transient transfected HEK293F cells were put at 10×10⁶ cells/mL in ice-chilled phosphate-buffered saline containing 0.1% BSA (Sigma)/0.05% NaN₃ (PBS/BSA/NaN₃) supplemented with 50 μg/mL human IgGs (blocking Fcγ receptors; Sigma) for 10 minutes at 4° C. Then, 10 μL/tube (ie, 0.1×10⁶ cells) of these cells were incubated with or without 100 μL purified mouse anti-human CD89 antibody at 10 μg/mL (in PBS/BSA/NaN₃) for 30 minutes at 4° C. […] After extensive washing in PBS/BSA/NaN₃, cells were subsequently incubated with 1:200 diluted PE-conjugated goat anti-mouse IgG Fey-specific antibodies (Jackson ImmunoResearch) for 30 minutes at 4° C. After extensive washing in PBS/BSA/NaN₃, cells were fixed in 2% formaldehyde in PBS/BSA/NaN₃ for 30 minutes at 4° C.
# [6] = molecular target: T8, membrane-bound full-length human CD89; assay: FACS, HEK293F-huCD89, 4C +NaN3, IgA then Ab 10 ug/mL; pre-bound non-aggr serum IgA
# Experimental: After this (ie, without washing), 50 μL purified mouse anti-human CD89 antibody at 20 μg/mL (in PBS/BSA/NaN₃) was added to these cells, and incubated for another 30 minutes at 4° C. […] After extensive washing in PBS/BSA/NaN₃, 1:200 diluted PE-conjugated streptavidin (Jackson ImmunoResearch) was added, and incubated for 30 minutes at 4° C. After extensive washing in PBS/BSA/NaN₃, cells were fixed in 2% formaldehyde in PBS/BSA/NaN₃ for 30 minutes at 4° C.
# [7] = molecular target: T8, membrane-bound full-length human CD89; assay: FACS, HEK293F-huCD89, 24 h 37C no NaN3, IgA then Ab 10 ug/mL; pre-bound non-aggr serum IgA
# Experimental: as §1
# [8] = molecular target: T8, membrane-bound full-length human CD89; assay: FACS, HEK293F-huCD89, 24 h 37C no NaN3, Ab 10 ug/mL then IgA; competitor non-aggr serum IgA
# Experimental: as §1
# [9] = molecular target: T2, chimeric human/cynomolgus monkey CD89-I; assay: FACS, transiently transfected HEK293F, 10 ug/mL; ++ strong, + intermediate, -/+ weak
# Experimental: (§3) After 48 hours, the binding of CD89/IgA blocking mouse anti-human CD89 antibodies to aforementioned chimeric human CD89/cynomolgus monkey CD89 constructs on transfected cells was analyzed by FACS analysis. To this end, transient transfected HEK293F cells were put at 10×10⁶ cells/mL in ice-chilled phosphate-buffered saline containing 0.1% BSA (Sigma)/0.05% NaN₃ (PBS/BSA/NaN₃) supplemented with 50 μg/mL human IgGs (blocking Fcγ receptors; Sigma) for 10 minutes at 4° C. Then, 10 μL/tube (ie, 0.1×10⁶ cells) of these cells were incubated with or without 100 μL purified mouse anti-human CD89 antibody at 10 μg/mL (in PBS/BSA/NaN₃) for 30 minutes at 4° C. […] After extensive washing in PBS/BSA/NaN₃, cells were subsequently incubated with 1:200 diluted PE-conjugated goat anti-mouse IgG Fey-specific antibodies (Jackson ImmunoResearch) for 30 minutes at 4° C. After extensive washing in PBS/BSA/NaN₃, cells were fixed in 2% formaldehyde in PBS/BSA/NaN₃ for 30 minutes at 4° C.
# [10] = molecular target: T3, chimeric human/cynomolgus monkey …; assay: as above
# Experimental: as §3
# [11] = molecular target: T4, chimeric human/cynomolgus monkey …; assay: as above
# Experimental: as §3
# [12] = molecular target: T5, chimeric human/cynomolgus monkey CD89-IV; assay: as above
# Experimental: as §3
# [13] = molecular target: T8, membrane-bound full-length human CD89; assay: FACS, HEK293F-huCD89, half-maximum binding
# Experimental: Then, 10 μL/tube (ie, 0.1×10⁶ cells) of these cells were incubated with or without 100 μL titrated (in PBS/BSA/NaN₃) purified chimeric mouse/human anti-human CD89 antibody/tube for 30 minutes at 4° C. […] After extensive washing in PBS/BSA/NaN₃, cells were subsequently incubated with 1:200 diluted PE-conjugated goat anti-human IgG Fey-specific antibodies (Jackson ImmunoResearch) for 30 minutes at 4° C. After extensive washing in PBS/BSA/NaN₃, cells were fixed in 2% formaldehyde in PBS/BSA/NaN₃ for 30 minutes at 4° C.
# [14] = molecular target: T6, chimeric human/cynomolgus monkey CD89-II; assay: FACS, transiently transfected HEK293F; - = no binding
# Experimental: as §3
# [15] = molecular target: T8, membrane-bound full-length human CD89; assay: FACS, HEK293F-huCD89, 24 h 37C no NaN3, IgA then Ab 10 ug/mL; pre-bound heat-aggr serum IgA
# Experimental: as §1
# [16] = molecular target: T8, membrane-bound full-length human CD89; assay: FACS, HEK293F-huCD89, unlabeled Ab 10 ug/mL first; competitor A3-PE
# Experimental: as §2
# [17] = molecular target: T8, membrane-bound full-length human CD89; assay: FACS, HEK293F-huCD89, 4C +NaN3, Ab 10 ug/mL then IgA; competitor non-aggr serum IgA
# Experimental: Then, 10 μL/tube (ie, 0.1×10⁶ cells) of these cells were incubated with or without 50 μL purified mouse anti-human CD89 antibody at 20 μg/mL (in PBS/BSA/NaN₃) for 30 minutes at 4° C. […] After extensive washing in PBS/BSA/NaN₃, 1:200 diluted PE-conjugated streptavidin (Jackson ImmunoResearch) was added, and incubated for 30 minutes at 4° C. After extensive washing in PBS/BSA/NaN₃, cells were fixed in 2% formaldehyde in PBS/BSA/NaN₃ for 30 minutes at 4° C.
# [18] = molecular target: T8, membrane-bound full-length human CD89; assay: FACS, HEK293F-huCD89, unlabeled Ab 10 ug/mL first; competitor MIP8a-PE
# Experimental: as §2
# [19] = molecular target: T6, chimeric human/cynomolgus monkey CD89-II; assay: FACS, transiently transfected HEK293F, 10 ug/mL; ++ strong, + intermediate, -/+ weak
# Experimental: as §3
# [20] = molecular target: T4, chimeric human/cynomolgus monkey …; assay: FACS, transiently transfected HEK293F; - = no binding
# Experimental: as §3
# [21] = molecular target: T8, membrane-bound full-length human CD89; assay: FACS, HEK293F-huCD89, 4C +NaN3, IgA then Ab 10 ug/mL; pre-bound heat-aggr serum IgA
# Experimental: as §1
Binder,EC50 [1] [µg/mL],percent IgA binding (remaining) [2] [%],% blocking of A59-PE binding [3] [%],percent IgA binding [4] [%],binding result [5],binding result [9],binding result [10],binding result [12],EC50 [13] [µg/mL],percent IgA binding (remaining) [15] [%],% blocking of A3-PE binding [16] [%],percent IgA binding [17] [%],% blocking of MIP8a-PE binding [18] [%],also measured
"mouse anti-human CD89-specific antibody 30C7 (antibody, mouse IgG1, V domains shown) VH: QVQLQQSGPELVRPGVSVKISCKGSGYTFTDYVMHWVKQSHAKSLEWIGVISTYSGNTNYNQKFKGKATMTVDKSSSTAYMELARLTSEDSAIYYCARESDGYYFDYWGQGTTLTVSS VL: DIVMSQSPSSLAVSAGEKVTMSCKSSQSLLNSRTRKNYLAWYQQKPGQSPKLLIYWASTRESGVPDRFTGSGSGTDFTLTISSVQAEDLAVYYCKQSYNLMYTFGGGTKLEIK",0.029,0 to 25,< 25,0 to 25,no binding (tested: 10 µg/mL),binds,binds,binds,0.484,0 to 25,< 25,0 to 25,> 90,percent IgA binding [6]: 26 to 50%; percent IgA binding (remaining) [7]: 0 to 25%; percent IgA binding (remaining) [8]: 0 to 25%; binding result [11]: binds; binding result [14]: no binding (tested: 10 µg/mL)
"mouse anti-human CD89-specific antibody 16D6 (antibody, mouse IgG1, V domains shown, also called 16D16) VH: QVQLQQSGAELMKPGASVKISCKATGYTFSTYWIEWVKQRPGHGLEWIGEILPGSGSANYNEKFKGKATFTADTSSNTAYMQLSSLTFEDSAVYYCAKGFGSPYYYAMDYWGQGTSVTVSS VL: EIVLTQSPALMAASPGEKVTITCSVSSSISSSNLHWYQQKSETSPKPWIYGTSKLASGVPVRFSGSGSGTSYSLTISNMEAEDAATYYCQQWSSFPLTFGGGTKLEIK",0.119,76 to 125,< 25,0 to 25,no binding (tested: 10 µg/mL),binds,binds,binds,1.62,76 to 125,< 25,0 to 25,< 25,binding result [19]: binds; binding result [20]: no binding (tested: 10 µg/mL); percent IgA binding [21]: 76 to 125%
